Assay: yeast display, Sf9 membrane polyspecificity reagent, FACS + sequencing; frameworks hold sequencing errors
In short: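 Using colony PCR, genes from sorted yeast display clones were amplified, then sequenced on MiSeq at 2 × 250 and filtered by CDR length. The clones had been stained with 10% biotinylated, detergent-solubilized Sf9 membrane reagent for 1 hour at 4 °C and sorted by FACS into low and high (top ~1%) gates on anti-HA and streptavidin fluorescence. Polyreactivity labels come from the gate of origin.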

QVPLVESGGGLVQAGGSLRLSCAASGSTFTRYAMGWYRQAPGKEREFVAGISSRGSRTYYADSVKGRFTISRDNAKNTVYLQMNSLKPEDTAVYYCAVSGNHVSPPYGYWGQGTQLTVSS
polyreactivity (PSR sort gate): high polyreactivity

QVQLVESGGGLVQAGGSLRLSCAASGSIFYSNAMGWYRQAPGKERELVAAITSSGGITRYADSVKGRFTISRDNAKNTVYLQMNSLKPEDTAVYYCAKDIRVYASDYWGQGTQVTVSS
polyreactivity (PSR sort gate): low polyreactivity

QVQLVDSGGGLVQAGGSLRLSSAASGFTFVAYAMGGYRQAPGKERELVATITKGGGGTYYADSVKGRFTISRDNAKNTVYLQMNSLKPEDTAVYYCAADRQYRGRTRYVYAPLYYWGHGTQVTVSS
polyreactivity (PSR sort gate): high polyreactivity

QVQLVDSGGGLVQAGGSLRLSCAASGIIYRFYAMGWYRQAPAQEREMVAAISSGGSTYYADSVKGRCTISRDTAKNTVYLQINRLKPEDTAVYYCNARVRYKRTGRYGYWGQGTQVTVSS
polyreactivity (PSR sort gate): high polyreactivity

QVQLVESGGGLVQAGGSLRLSCAASGRIFGVNAMGWYRQAPGKERELVAVISSGGSTYYADSVKGRFTISRDNAKKTVYLQMNSLKPEDTEVYYCDRKSYNFIPGNREYDYWGQGTQVTVSS
polyreactivity (PSR sort gate): low polyreactivity

QDQLVESGGGLVQAGGSLRLSCAASGFTFTRNAMGWYRQAPGKERELVAAISRGGSTNYADSVKGRFTISRDNAKNTVYLQMNSLKPEDTAVYYCAKVRTRGTPGVDYYYWGQGTQVTVSS
polyreactivity (PSR sort gate): high polyreactivity

QVQLVESGGGLVQAGGSLRFSCAASGSTFVRYPMGWYRQAPGKERELVAAITRSGGRTYYADSVKGRFTISRDNAKNTVYLQMNSLKPEDTAVYYCAADVSHVQGYDYWGQGTQVTVSS
polyreactivity (PSR sort gate): high polyreactivity

QVQLVESGGGLVQAGGSLRFSCAASGSTFQYYAMGWYRQAPGKERELVAAISYGGSRTYYADSVKGRFTISRDNAKNTVYLQMNSLKPEDTAVYYCANEKYRALAPYYYWGQGTQVTVSS
polyreactivity (PSR sort gate): high polyreactivity

QVQLVESGGGLVQAGGSLRLSCADSGLTFWAYAMGWYRQAPGKARELVAGISSGVSTYYADSVKGRFTISRDNAKNTFYLQMNSLKPEDTEVYYCAAYVYTWYYYDVGYWGQGTQVTVSS
polyreactivity (PSR sort gate): high polyreactivity

QVQLVESGGGLVQAGASLRLSCAASGGTIAPYAMGWYRQAPGNVRELVAAITSAGTRTYYADSVKGRFTISRENAKNTVYLQMNRLKPEDTAVYYCAAGGGHSMYYWGKGTQVTVSS
polyreactivity (PSR sort gate): high polyreactivity

QVQLVESGGGLVQAGGSLRLSCAASGLTFHPYAMGWYRQAPGKERELVAAISSRGTSTYYADSVKGRFTISRDNAKNTVYLQMNSLKPEDTAVYYCAAEVITIGLYRYGYWGQGTQVTVSS
polyreactivity (PSR sort gate): high polyreactivity

QGQLVESGGGLVQAGGSLRLSCAASGSIFVYNVMGWYRQEPGKATELVADISKTAGRTYSADSVKGRFTISRDNAKNTVYLQINSLKPEDTAVSYCAVGNKRDAYYQYSSYGYWGQGTQVTVSS
polyreactivity (PSR sort gate): low polyreactivity

QVQLVESGGGLVQAGGSLRLSCAASGRIFGFYAMGWYRQAPGKERELVARITLSGGRTYYADSVKGRFTISRDNAKNTVYLQMNSLKPEDTAVYYCAADSIGRLWGYGYWGQGTQVTVSS
polyreactivity (PSR sort gate): high polyreactivity

QVQLVESGVALVQAAGSLRLRCAAYGSTFSYNAMGWYRQATGKERELVAAISGSGGTTYYADSVKGRFTISRDNAKNTVYLQMNSLKPEDTAVYYCAAELTRYRYFYHKRPMDYWGQGTQVTVSS
polyreactivity (PSR sort gate): low polyreactivity

QVQLVESGGGLVQAGGSLRLSCAASGRIFYPYVMGWYRQAPGKERELVAAITGGGSTYYADSVKGRFTISRDNAKNTVYLQMNSLKPEDTAVYYCAKRSYGDRDERYDSWGQGTQVTVSS
polyreactivity (PSR sort gate): low polyreactivity

QVQLVESAGGLVQAGGSLRLSCAASGSIFYYYAMGWYRQAPGKERELVATISSSSGSTYYADSVKGRFTISRDNAKYTVYLQMNRLKPEDTAVYYCATVSGSVWQRWVYANYDFWGQGTQVTVSS
polyreactivity (PSR sort gate): low polyreactivity

QVQLVESGGGLVQAGGSLRLSCAASGRTFAFNAMGWYRQAPGKERELVATISWSGGSTYYADSVKGRFTISRDNAKNTVYLQMNSLKPEDTAVYYCGAEYVVYRYRLYGTVAYDYWGQGTQVTVSS
polyreactivity (PSR sort gate): high polyreactivity

QVQLVDSGGGLVQAGCSLRLSCPASGGTFGYYAMGWYRQAPGKERELVAGINYSGGRTYYADSVKGRFTISRDNAMNTVYLKMDSLKPEDTAVYYCAAQAYVGYRGYDYWVQGTQVTVSS
polyreactivity (PSR sort gate): high polyreactivity

QVQLVESGGGLVQAGGRLRLSCAASGLIILRYTMGWYRQAPGKERELVAVITSGGRTYYADSVKGRFTISRDNAKNTVYLQMNSLKPEDTAVYYCAASVGLRTSFTGGGYWGQGTQVTVSS
polyreactivity (PSR sort gate): high polyreactivity

QDKLVESGGALVQAGGSLRISCAASGNIFSYYAMGWNRQAPGKEMDLVAAISRRGTNTYYADSVKGRFTISRDKAKNTVYLQMNSLKPEDTAVYYCASYGPYQSSYHYDYWGQGTQVTVSS
polyreactivity (PSR sort gate): high polyreactivity

QVQLVESGGGLVQAGGSLRLSCAASGSTFGLYVMGWYRQAPGKERELVAAISWSGGSTYYADSVKGRFTISRDTAKNTVYLQMNSLKPEDTAVYYCAKVFRTYRYPYGYWGQGTQVTVSS
polyreactivity (PSR sort gate): high polyreactivity

QVQLVESGGGLVQAGGSLRLSCSASGITFEGYAMGGYRQAPGKERELVAAIRSSGTSRYYADSVKGRFTISRDNAKNTVYLQMNSQKPEDTAVYYCNRARSSSRYDYWGQGTQVTVSS
polyreactivity (PSR sort gate): low polyreactivity

QVQLVESGGGLVQAGGSLRLSCAASGIIFYRYAMGWYRQAPGKERELVAAISTRGGSTYYADSVKGRFTISRDNAKYTVYLHMNSLKPEDTAVYYCAAEWLRYLHDYWGQGTQVTVSS
polyreactivity (PSR sort gate): high polyreactivity

QVQLVESGGGLVQAGGSLRLSCAASGSTSVINAMGGNRQAPGKERELVAGISGSGGSTYYADSVKGRFTISRDNAKNTVYLLMNSLKPEDTAVYYCAKRFYRPVPGGYYWGQGTQVTVSS
polyreactivity (PSR sort gate): high polyreactivity

QVQLVESGGGLVQAGGSLGLSCAASGYTFDHNAMGWYRQAPGKERELVAAINWSGGSTYYADSVKVRFTISRDNAKNTVYLQMKSLKPEDTAVYYCARYRVLASRVDYWGQGTQVTVSS
polyreactivity (PSR sort gate): high polyreactivity

QVQLVESGGGLVQAGGSLRLSCAASGFTFIYAMGWYRQAPGTERELVAAITRSGGSTYYADSVKGRFTISRDNAKNTVYLQMNSLKPEDTAVYYCAAEAVIYYSSYFEYYYWGQGTQVTVSS
polyreactivity (PSR sort gate): high polyreactivity

QVQLVESGGGLVQAGGRLRLSCAASGFIFAKYAMGWYRQAPGKERELVAAITSSGVSTYYADSVKGRFTISRDNAKNTVYLQMNSLKPADTAVYYCNARERYSYWGQGTQVTVSS
polyreactivity (PSR sort gate): high polyreactivity

QVQLVESGGGLVQAGGSLRLSCAANGYIFLIYDRGWYRQSPGKEMELVAAISNSVGSTYADSVKGRFTISRDNAKNTDYLQMNSLKPEDTAVYYCNADSGPIDGRGGYWGQGTQVTVSS
polyreactivity (PSR sort gate): low polyreactivity

QVQLVESGGGLVQAGGSLRLSCAASGFTFSHYAMGWYRQAPGKERELVAAISWGGGSTYYADSVKGRFTISRDNAKNTVYLQMNSLKPEDTAVYYCARDVVYRGYYYGAFVYWGQGTQVTVSS
polyreactivity (PSR sort gate): low polyreactivity

QVQLVESGGGLVQAGGSLRLSCAASGSIFYFNAMGWYRQAPGKERELVAAITASGGRTYYADSVKGRFTISRDNAKNTVYLQMNSLKPEDTAVYYCNAYRPWSWWGEMDYWGQGTQVTVSS
polyreactivity (PSR sort gate): high polyreactivity

QVQLVESGGGLVQAGGSLRLSCAASGSIFASYAMGWYRQAPGKERELVAAISRRAVRTYYADSVKGRFTISRDNAKNTVYLQMNSLKPEDTAVYYCNATRGQYVGRYYYWGQGTQVTVSS
polyreactivity (PSR sort gate): high polyreactivity

QVQLVESGGGLVQAGGSLRLSCAASGSIFPDYAMGWYRQAPGKERELVAAITWRDDSTYYADSVKGRFTISRDNAKNTVYLQMNSLKPEDTAVYYCNASALDPLYAKDDYWGQGTQVTVSS
polyreactivity (PSR sort gate): low polyreactivity
